Measured values from US20090149343A1, “HISTONES” (priority 2006, published 2009).

Biological target: T1, micro-array bound histone H3 peptides (Homo sapiens, UniProt P68431)
T1 construct: 48 discrete histone H3 peptides containing a wide range of histone modifications at defined residues; made in house; host or cells: peptides by chemical solid phase synthesis
Assay: Histone peptide microarray-based methylation assay (SET 7/9)
Assay type: biochemical
Conditions: 12 hrs, 30° C. methylation buffer; 100 uM, 70 ul SET 7/9; FIG. 15
Method: FIG. 15. SET 7/9 dependent methylation of micro-array bound histone peptides. Microarray slides containing duplicate arrays (dashed boxes) of 48 discrete histone H3 peptides containing a wide range of histone modifications at defined residues. These were incubated with the methyl-transferase enzyme SET7/9 (Bottom panel) or a buffer containing no enzyme (Control, top panel), and subsequently probed with an anti-H3K4me1 antibody.
Methylation assays were performed using the recombinant human histone methyl-transferase SET 7/9 under standard methylation conditions. Assays on the microarrays of the invention were performed under coverslips, enabling small volumes of reagent usage per assay (70 μl). Enzyme-mediated methylation is detected by a histone methyl specific antibody (i.e. anti-histone H3 mono-methyl K4) by standard Western blotting conditions.
Importantly, reproducible patterns of modification are generated on the different peptides (the dashed boxes contain duplicate arrays of 48 epitope spots) allowing users to analyse the effects of defined modifications on methyl transfer by the enzyme.

B1: SET 7/9: recombinant human histone methyl-transferase SET 7/9 (protein)
chain: MDSDDEMVEEAVEGHLDDDGLPHGFCTVTYSSTDRFEGNFVHGEKNGRGKFFFFDGSTLEGYYVDDALQGQGVYTYEDGGVLQGTYVDGELNGPAQEYDTDGRLIFKGQYKDNIRHGVCWIYYPDGGSLVGEVNEDGEMTGEKIAYVYPDERTALYGKFIDGEMIEGKLATLMSTEEGRPHFELMPGNSVYHFDKSTSSCISTNALLPDPYESERVYVAESLISSAGEGLFSKVAVGPNTVMSFYNGVRITHQEVDSRDWALNGNTLSLDEETVIDVPEPYNHVSKYCASLGHKANHSFTPNCIYDMFVHPRFGPIKCIRTLRAVEADEELTVAYGYDHSPPGKSGPEAPEWYQVELKAFQATQQK
enzyme-mediated methylation of array peptides detected by anti-histone H3 mono-methyl K4 antibody: specific enzymatic methyl transferase activity occurs
